Reference: publication PMC2880176

Assays:
[1] = test system: MBP-#γA (5-finger artificial zinc finger protein) (artificial); assay: EMSA
[2] = test system: MBP-#γA-opt (5-finger artificial zinc finger protein) (artificial); assay: EMSA
[3] = test system: gg1 (6-finger artificial zinc finger protein) (artificial); details: cited from earlier work

| Sequence | Kd [1] | Kd [2] | Kd [3] |
| --- | --- | --- | --- |
| GATGCCGTTTGAGGT (double strand) [γ-globin promoter #γA target site] | 3.2 nM | 7.1 nM | – |
| GTCAAGGCAAGGCTGGCC (double strand) [gg1 target site in γ-globin promoter] | – | – | 0.7 nM |
